The target in this assay is APOBEC3G (human), Q9HC16. The assay is described as follows: SEC; 10-15 µg of purified enzyme (low enzyme concentration) on a 10 mL Superdex 200 column; 50 mM Tris pH 7.5, 200 mM NaCl; masses and oligomerization states from a Bio-Rad gel filtration standard curve. The following applies: remark: other sources report otherwise.

B1: APOBEC3G, Q9HC16 1-384 (enzyme)
chain: MKPHFRNTVERMYRDTFSYNFYNRPILSRRNTVWLCYEVKTKGPSRPPLDAKIFRGQVYSELKYHPEMRFFHWFSKWRKLHRDQEYEVTWYISWSPCTKCTRDMATFLAEDPKVTLTIFVARLYYFWDPDYQEALRSLCQKRDGPRATMKIMNYDEFQHCWSKFVYSQRELFEPWNNLPKYYILLHIMLGEILRHSMDPPTFTFNFNNEPWVRGRHETYLCYEVERMHNDTWVLLNQRRGFLCNQAPHKHGFLEGRHAELCFLDVIPFWKLDLDQDYRVTCFTSWSPCFSCAQEMAKFISKNKHVSLCIFTARIYDDQGRCQEGLRTLAEAGAKISIMTYSEFKHCWDTFVDHQGCPFQPWDGLDEHSQDLSGRLRAILQNQEN
In general, stoichiometry N refers to the number of molecules, sites or subunits per partner or assembly. B1 had a stoichiometry N of 2.

These data come from PMC3961392.
